In this assay the target is T1, tau peptide V1089–24.
T1 sequence (peptide, phosphoserine at Ser422; biotin (position not stated)): SSTGSIDMVDSPQLATLA
Kind of assay: BLI; biotinylated peptide V1089–24 (1 μg/ml) on streptavidin biosensors; 13 Fab concentrations in ForteBio's kinetics buffer; 600 s association, 600 s dissociation; steady state analysis. A general note: Biolayer interferometry detects binding as a change in optical thickness at a sensor tip.

Substitutions are numbered along the chain they refer to.

B1: Fab-dmCBTAU-22.1 (Fab, V domains shown)
VH: QVQLVQSGAEVKKPGAPVKVSCETSGYRFSDYFVHWVRQAPGQGPEWIGRIRPNSGGTKYAQKFQGRVTMTRDMSMNTAYMELSGLRSDDTAVYYCVRGHCDGTTCSRAYWGQGTLVTVSS
VL: DVVMTQSPLSLPVTPGEPASISCRSSQSLLHRSGHKYLHWYLQRPGQSPQVLIYLGSNRASGVPDRFSGSGSGTDFTLKISRVEAEDVGLYYCMQTLQTPWTFGQGTKVEIK
Take B1: the equilibrium dissociation constant (Kd) is 0.24 µM.

B2: Fab-CBTAU-22.1 (Fab, V domains shown)
VH: B1 VH with F33N, R52S
VL: B1 VL
For B2, the Kd came to 5.6 µM. This Kd is about 23-fold higher than that of the molecule before.

The Kd is a measure of binding affinity in units of concentration. A higher Kd goes with weaker binding.
